Article PMC3424236, “Siderocalin/Lcn2/NGAL/24p3 Does Not Drive Apoptosis Through Gentisic Acid Mediated Iron Withdrawal in Hematopoietic Cell Lines” (PLoS ONE, 2012)
Each block holds one binder with its values, some of them ahead of it.

What was measured:
24p3R CTD = target: T1, 24p3R CTD (Homo sapiens, UniProt Q8WUG5); experiment: SPR
T1 chain: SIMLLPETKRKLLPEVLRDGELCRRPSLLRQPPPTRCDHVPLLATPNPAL

murine siderocalin (Scn) [1] = target: T2, murine siderocalin (Scn) (murine, UniProt P11672 21-200); experiment: SPR; 2086 RU of Scn amine-coupled to a CM5 chip; CTD analytes 3.125 to 50 µM, one minute at 20 µl/min, Biacore 3000, double-subtraction; comparable for NTD; details: both partners purified
T2 construct: siderocalin (lipocalin 2, NGAL, 24p3), murine; the discussion says that murine Scn was tested with the murine BOCT subdomains; also called lipocalin 2; Lcn2; source: expressed recombinantly in E. coli, produced as previously described [46]; for the HeLa assays also obtained from R&D Systems or the gift of L. Devireddy
T2 sequence (looked up): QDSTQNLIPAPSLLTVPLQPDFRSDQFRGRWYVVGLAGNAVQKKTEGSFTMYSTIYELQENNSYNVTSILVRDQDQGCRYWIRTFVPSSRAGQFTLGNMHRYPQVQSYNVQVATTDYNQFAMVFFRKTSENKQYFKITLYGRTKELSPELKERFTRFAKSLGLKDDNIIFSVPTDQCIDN

murine siderocalin (Scn) [2] = target: T3, murine siderocalin (Scn) (murine, UniProt P11672); experiment: crystal structure; Scn/Fab complex purified by size exclusion chromatography; vapor diffusion at 25°C, 0.1 M sodium citrate pH 4.2, 0.2 M sodium chloride, 20% w/w PEG 8000; details: both partners purified
T3 construct: siderocalin (lipocalin 2, NGAL, 24p3), murine; the discussion says that murine Scn was tested with the murine BOCT subdomains; also called lipocalin 2; Lcn2; source: expressed recombinantly in E. coli, produced as previously described [46]; for the HeLa assays also obtained from R&D Systems or the gift of L. Devireddy

Kd (24p3R CTD): > 50 µM
B1: Siderocalin (protein)
chain: QDSTSDLIPAPPLSKVPLQQNFQDNQFQGKWYVVGLAGNAILREDKDPQKMYATIYELKEDKSYNVTSVLFRKKKCDYWIRTFVPGCQPGEFTLGNIKSYPGLTSYLVRVVSTNYNQHAMVFFKKVSQNREYFKITLYGRTKELTSELKENFIRFSKSLGLPENHIVFPVPIDQCIDG

Kd (murine siderocalin (Scn) [1]): > 50 µM
B2: BOCT C-terminal domain CTD^477-520 (domain or fragment)
chain: ETKRKLLPEVLRDGELCRRPSLLRQPPPNRCDHVPLLATPNPAL
modifications: Paper numbering is for the 520-residue long form (24p3R-L). The entry has 401 residues, so offset is -119: C-terminal 44 residues, just after the last TM (336-356). Printed loop peptides 210-218 and …

binding result (murine siderocalin (Scn) [2]): binds
B3: Fab MAB1857 (Fab fragment of monoclonal anti-Scn rat IgG2A, R&D Systems MAB1857) (Fab, V domains shown)
VH: EVKLQESGPSLVQPSQTLSLTCTVSGFSLTSNSVHWVRQPPGQGLEWMGGIWGDGRTDYNSALKSRLSISRDTSKSQVFLKMNSLQTDDTAIYFCTRCRRDSSYVVDAWGQGASVTVSS
VL: DILMTQSPLSLSASLGDKVTITCQASQIIYNYIAWYQQKPGKAPRLLIRYTSTLESGTPSRFSGSGSGRDYSFSISNVESEDIASYYCLQYDNLPYMFGAGTKLELK
notes: rat IgG2A; Fab made with papain; also called anti-Scn antibody MAB1857; source: bought: R&D Systems MAB1857, cleaved with papain
